The NTF2 design screens of Basanta et al. (2020)

Experiment: protease stability score; higher = more stable; yeast display proteolysis, trypsin and chymotrypsin;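 also: relative to predicted unfolded state with 0 unfolded-like and 1 meaning tenfold more protease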

Row | Sequence | protease stability score
1 | SDLDRLLEEMAKRFVEVMLTGDEEIMKELIDPNARVDWDGVEIHGWKEISEWLKEEIERQENYRYEFEFRDLDVIGNKAVFFTDLHFNINGRRIRTHSVYKVNVVNGKVKHVHVEIR | 1.21
2 | SDLEDEFREFLEEWIKHWLTGDEETLFHLADPHAQIDINGREHHGMDEWMHILLKHLKELGARIEIRIEDIRVQGEKTEVDGNLILHINGRRKELKVELIVRVVNGRLKSIEIRIH | 1.02
3 | SDLEEEALNLAREWMHNWVTGNEEREEELLDPNVRSDINGRHFHGRERISRMIRYLLDEIRVHDVKEHDMEIQGEKVRIDGRIDGEVNGKRKILVMHFHIVVIDGVIHSVEVRIE | 1.18
4 | SDLEEEINRFLTELLRDWETGNWKAFADLLDPHTRVLIDGKEHHGREIFLEHNHQLGIKHREFELKKFRIFENRVEFDGTLHLVYGDKRVHREIHIIILKIDGRWKITEIRFL | 1.54
5 | SDLEERSKSALHHLEEVLRTGDEDESRLMLDPNVRSVYDGREFHGRELVTELLSAFLKHLRIRDVKVERVEMNENEVRWDMKIDGTVGDKRYETHVHIIVVKVNGRWFLKEVRFG | 1.39
6 | SDLEEVIRKHIEELEESRRTGDEESLWRLLDPNTLKVVGDKRIHGMEAVAEIETFHDRRVKNATDRLNLREVHTQGDKLTIRGELILDWDGVKINVHVRLEILKFDGRWIIHRIEVK | 0.715
7 | SDLEKETEELTRLFLENLVTGDEKTARELIDPHAMTDIGDFHIHGRDRTFRHIEELWRHWGVDRIRIHHDHIDIQGNKSYIEGTIHINGQSRKVHLIIIVFNGRIDKVRMHIR | 1.36
8 | SDLEKLAEHTAKEIIHYWLTGDWKSLTELADPHVKLDIDINGRREHHHGWERVIEFFDRFRKRIDHHHIHIDSIDIQGDKVHIDGKLHVHQGDKDLTIKMTIIVIVVDGRIKSLRVIIL | 2.13
9 | SDLEMEMKRWMELWLRMFVTGDFRTFLHLADPEYKVSAEGVSSHGRDFHIKELLRWLKEIRIHDFHVKDMDVQGDKAHSDGRHNGIVDGRNRDVNVHNEIVTIDGRLRSVTIRLE | 0.534
10 | SDLERDAREAFEHYVNLMRTGNEHIVEHLIDPDVKIEIGDKQVVGREEVLKLFHHLVKHLRWHDTKLHHVHYQGDKMLLDMRLDGTIDGRRLDTRVIWFILKIDGVWFIKYQHYH | 1.81
11 | SDLERHISEVFKDIIEMEETGDEEELDKLADPNVRIDIDGVELIGRESLRRWVESVVDQIKGIKKHIVIRHLRVFNGRADSDGELRIHINGKTIVRKVRIHITVVNGRLKEMQFRTE | 1.19
12 | SDLHHIVDNLLQEWLHARLTGDEDRLLELMDPDAREDVNGRTLVGREDSWKIMLELRFRVEHWHIHRLEIQGDKIDMDIEFDVRFDVDGVPYRLRTRQKIHIDVYNGKIQRLQVHIL | 0.325
13 | SDLHRDIQRLLEQVLRSRETGDEDHLEKYADPHARSVFDGVEFHGWEELLRVIRHIRIRRLRLTHIEVQGDKVELDLELDGEINGQRVRVHLEIHSEKINGRWIMTEVVIE | 1.21
14 | SDLNQVFRESLEHHLHALETGDWRELYRLADPNVLVIVGDKEIHGMEEWSRILEEEMRRVKGMRIEINPTDIDFQGNKVRAHTRLHVEVDGRSVETDTEHESKKVNGRWILKRLTIR | 1.16
15 | SDLREEVKEFLKLLVEAFETGDEEALHELMDPNTRFRYGDKDLIGMKILERWWHELFRHLGVDRFRIELRVHHVTIINGQMHNDGTLIIRQGDKEERFKINLVIEKIDGRWIIHMVIFE | 0.893
16 | SDMDEMISRFRREVEHSMQTGDERFDHEMADPHARFWINGVLFHGRHALEMWKEELGVDNFKIRHIHIRDEKIQGNKITLDVEYHLLVNGQQVDLRVILIYRKVNGKWTLEEERLV | 0.851
17 | SDQDHLTELAEHLFEYSLETGDEELMDKNFDPNMKLEVGEKHEHGRHVAETFSRRFDVVKSIEMKHVTTINGVAEIDGHIDGNFNGVDIRTDVRLVSLKIDGRWFIHSITFV | 0.319
18 | SDRRELLERLAELFLHWWLTGDWKAISDNADPNVRLDIQQGDKHIHDIGRERTEEVLRKIFERFKNLKIEIKRFDMQGDKLHVDSRVTFDGVEFNMEIHNLVVDGRIREIYVHLH | 1.54
19 | SDSDHDLEHLLELLMRAYETGNEEEIRRLVDPNARWDINGVELHGWKVMHKFLREMRPTRIRIIIDDSETIGDKMFVDGTIRLDVHIGDKLIHTERRSRLVHRKVDGKWTQTSVIID | 0.68
20 | SDSEESSKVALELFKESVETGDERVSQELADPNYRVHYGDKTLHGREAWIRVILEMRWRTVTFKHLDFQGDKVRIEGEILGEYNGVETNFSTTLNVLKINGQWFLHSVHIQ | 1.49
21 | SDSEKVSREAWELMLRDHETGDEEAFQNNVDPHTRIHINGVDYHGWRDFVDLMRELRIEHVTLRDYRVIGNKMHIHGQVHGEIDGRRINMHVTIIARKINGRWILEHSIFV | 1.97
22 | SDTEHDARRVIEELSKALLTGDWRRIEELLDPNTRWVFNGQEFHGMEIVIKVLIHLRRHMTHVEFHDIHTIDGRVHSDTEFDVSLIINGKTERTRVHVEFIIRKVNGRWRIEEVRFE | 2.25
23 | SDVDDMAHKMATLLIDLLETGDWREIRKFADPNVRIEIGDKEYHGMDYHLKHFRDLGWELHLRVERIDVVNGRILIHQEVELRFDGRHDHRKHTLIIEKIDGKWRFNEMIIS | 1.09
24 | SDVDEKMETFLTLLFELIYTGDEEVIEKLFDPNVQLDVNGQIYHGMENVIEFVHQVKRHIRWKTVQIRHYRTQGEWAYSQVEVTGTVNGQSHRFEIHIDIWVINGKLKHIKKDIE | 2.01
25 | SDVEEMLHRIARLIVHNLFTGDWEDLVRMMDPHARYIVNGKESVGWRRVTEMLRRHHEELRIREIRIRHIEVYNGKAELHLEVNEEVNGREVSLDTRLHVLTINGVIRSIHIEVE | 0.719
